This is an account of results in publication PMC12769810, “Structure and substrate promiscuity of Campylobacter jejuni periplasmic nitrate reductase (Nap) and phylogenetic analysis of Nap homologs” (The Journal of Biological Chemistry, 2025).

In data set [1] the target is T1, CjNapA (WT NapA) (Campylobacter jejuni, UniProt Q9PPD9).
T1 construct: recombinant catalytic subunit NapA without NapB; native N-terminal TAT signal peptide replaced by that of E. coli; 889 residues modelled by cryo-EM
Briefly: cryo-EM structure, […] Å. In kind it is binding. The following applies: coordinated by Cys42, Cys45, Cys49, Cys77.

Data set [2] concerns the target T1, CjNapA (WT NapA). The experiment in a line: steady-state nitrate reductase assay, reduced methyl viologen oxidation, double-reciprocal plot. In kind it is biochemical.
For another data set, the system named is [O-][Cl+3]([O-])([O-])O. Briefly: purified protein. In kind it is biochemical, Campylobacter jejuni. The settings on record: reduced methyl viologen, 50 mM HEPES pH 7, room temperature, argon glove box, 67 nM enzyme, corrected for background oxidation.
Another data set deals with [O-][Cl+2]([O-])O. Briefly: purified protein. Type of data set: biochemical, Campylobacter jejuni. The settings on record: reduced methyl viologen, 50 mM HEPES pH 7, room temperature, argon glove box, 67 nM enzyme.

T1 sequence (Q9PPD9 31-924): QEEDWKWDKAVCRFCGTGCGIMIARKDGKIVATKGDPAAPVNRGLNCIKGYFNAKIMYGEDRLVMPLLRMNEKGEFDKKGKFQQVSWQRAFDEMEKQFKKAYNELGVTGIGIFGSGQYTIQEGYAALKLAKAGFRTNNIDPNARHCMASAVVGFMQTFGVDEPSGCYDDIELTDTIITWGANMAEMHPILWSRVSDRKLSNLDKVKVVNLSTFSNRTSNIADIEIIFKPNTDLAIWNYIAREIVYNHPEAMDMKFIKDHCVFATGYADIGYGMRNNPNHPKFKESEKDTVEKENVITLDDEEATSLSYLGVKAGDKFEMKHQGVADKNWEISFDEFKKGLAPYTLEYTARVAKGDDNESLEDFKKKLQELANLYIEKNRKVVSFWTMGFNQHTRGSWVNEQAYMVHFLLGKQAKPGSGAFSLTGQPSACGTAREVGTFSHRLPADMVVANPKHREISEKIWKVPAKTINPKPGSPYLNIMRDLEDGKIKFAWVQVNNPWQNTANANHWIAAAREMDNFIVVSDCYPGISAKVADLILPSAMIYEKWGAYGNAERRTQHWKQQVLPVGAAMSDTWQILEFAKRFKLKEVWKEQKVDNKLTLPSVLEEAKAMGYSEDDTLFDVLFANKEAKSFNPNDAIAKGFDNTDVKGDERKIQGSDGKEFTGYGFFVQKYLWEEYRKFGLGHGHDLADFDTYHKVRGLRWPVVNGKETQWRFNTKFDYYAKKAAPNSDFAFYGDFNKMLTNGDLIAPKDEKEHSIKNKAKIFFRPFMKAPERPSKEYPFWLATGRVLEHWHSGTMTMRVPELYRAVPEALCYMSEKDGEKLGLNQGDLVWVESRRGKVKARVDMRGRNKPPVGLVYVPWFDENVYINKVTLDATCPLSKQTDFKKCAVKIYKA

As for `[S]12[Fe]3[S]4[Fe]1[S]1[Fe]2[S]3[Fe]41` [[4Fe4S] cluster], on CjNapA (WT NapA) [1], the “cryo-EM structure, 3.04 Å” value was “NapA has a [4Fe4S] cluster, which is located closer to the surface of the protein”.
`[O-][Cl+3]([O-])([O-])O` [perchlorate]: the inhibition constant Ki (commonly a measure of affinity in units of concentration, obtained from inhibition or displacement) on CjNapA (WT NapA) [2] was determined as 4.7 ± 0.3 mM.
Consider “CjNapA (WT NapA) (Campylobacter jejuni subsp. jejuni NCTC 11168 = ATCC 700819)”, for which, in data set [O-][Cl+3]([O-])([O-])O, the Michaelis constant (Km) (usually the substrate concentration at which the rate is half of its maximum) came to 22.907 ± 3.132 mM; the turnover number (kcat) (usually the number of substrate molecules converted per active site and unit of time at saturation) turned out to be 2.52 ± 0.07 s⁻¹; the kcat/Km (in general, the turnover number divided by the Michaelis constant) was found to be 100 M⁻¹ s⁻¹. Besides, in data set [O-][Cl+2]([O-])O, the Km was found to be 0.968 ± 0.093 mM, the kcat turned out to be 2.13 ± 0.04 s⁻¹ and the kcat/Km was 2200 M⁻¹ s⁻¹.
